Reference: the supplement of paper PMC7877785
± gives the uncertainty stated by the source.

Test: self-splicing fitness, log relative to wild type (ln ratio); higher = more splicing; Tetrahymena group I intron in knt gene, E. coli kanamycin selection, DiMSum; sequences stand for … in CUCUCU…GGAGGGAAAAGUUAUCAGGCAUGCACCUGGUAGCUAGUCUUUAAACCAAUAGAUUGCAUCGGUUUAAAAGGCAAGACCGUCAAAUUGCGGGAAAGGGGUCAACAGCCGUUCAGUACCAAGUCUCAGGGGAAACUUUGAGAUGGCCUUGCAAAGGGUAUGGUAAUAAGCUGACGGACAUGGUCCUAACCACGCAGCCAAGUCCUAAGUCAACAGAUCUUCUGUUGAUAUGGAUGCAGUUCACAGACUAAAUGUCGGUCGGGGAAGAUGUAUUCUUCUCAUAAGAUAUAGUCGGACCUCUCCUUAAUGGGAGCUAGCGGAUGAAGUGAUGCAACACUGGAGCCGCUGGGAACUAAUUUGUAUGCGAAAGUAUAUUGAUUAGUUUUGGAGUACUCGUGGUCG
Procedure, shortened: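 Colonies from six replicate transformations of E. coli BL21(DE3) were pooled and amplicon-sequenced on an Illumina HiSeq 2500. The library placed an intron with all eight P1ex-region nucleotides randomised inside the knt kanamycin-resistance gene on pET-22b(+), and cells grew overnight at 37°C or 30°C on LB agar with or without 25 μg/mL kanamycin (plus 100 μg/mL carbenicillin, 50 μM IPTG, 0.2% rhamnose). Fitness is the DiMSum error-weighted combination of wild-type-normalised replicate fold changes, kanamycin versus none.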

Row | Sequence | self-splicing fitness (ln) (30 °C) | self-splicing fitness (ln) (37 °C)
1 | AGUUAGCAAUAUUACGAACC | -1 ± 0.15 | -0.401 ± 0.17
2 | AGUUAGCAAUAUUACGACGU | 0.261 ± 0.07 | 0.647 ± 0.083
3 | AGUUAGCAAUAUUACGACUC | -2.36 ± 0.32 | -1.83 ± 0.38
4 | AGUUAGCAAUAUUACGAGGU | -3.43 ± 0.16 | -1.55 ± 0.17
5 | AGUUAGCAAUAUUACGAGUA | -2.73 ± 0.17 | -1.64 ± 0.13
6 | AGUUAGCAAUAUUACGCCGG | -2.98 ± 0.34 | -2.26 ± 0.39
7 | AGUUAGCAAUAUUACGCGUC | -3.11 ± 0.48 | -0.621 ± 0.33
8 | AGUUAGCAAUAUUACGCGUU | -1.32 ± 0.12 | -0.816 ± 0.15
9 | AGUUAGCAAUAUUACGGAGA | -1.99 ± 0.27 | -2.86 ± 0.48
10 | AGUUAGCAAUAUUACGGCUC | -3.53 ± 0.26 | -2.46 ± 0.34
11 | AGUUAGCAAUAUUACGGGGU | -3.76 ± 0.46 | -2.61 ± 0.33
12 | AGUUAGCAAUAUUACGGUAG | -3.77 ± 0.3 | -2.11 ± 0.34
13 | AGUUAGCAAUAUUACGGUGA | -1.43 ± 0.13 | -1.13 ± 0.21
14 | AGUUAGCAAUAUUACGGUUA | -1.54 ± 0.12 | -0.607 ± 0.087
15 | AGUUAGCAAUAUUACGUAAG | -2.42 ± 0.21 | -0.816 ± 0.27
16 | AGUUAGCAAUAUUACGUAGU | -2.77 ± 0.17 | -1.94 ± 0.17
17 | AGUUAGCAAUAUUACGUAUU | -2.02 ± 0.1 | -1.04 ± 0.11
18 | AGUUAGCAAUAUUACGUCCA | -0.989 ± 0.16 | -0.0648 ± 0.18
19 | AGUUAGCAAUAUUACGUCCC | -0.148 ± 0.21 | -0.452 ± 0.2
20 | AGUUAGCAAUAUUACGUCCU | 0.147 ± 0.09 | 0.0687 ± 0.091
21 | AGUUAGCAAUAUUACGUGAC | -2.66 ± 0.24 | -2.9 ± 0.33
22 | AGUUAGCAAUAUUACGUGAU | -3.08 ± 0.21 | -1.19 ± 0.18
23 | AGUUAGCAAUAUUACGUGCA | -1.6 ± 0.14 | -0.22 ± 0.15
24 | AGUUAGCAAUAUUACGUGUG | -3.18 ± 0.15 | -1.8 ± 0.13

Row | Sequence | self-splicing fitness (ln) (30 °C) | self-splicing fitness (ln) (37 °C)
25 | AGUUAGCAAUAUUACGUGUU | -3.25 ± 0.15 | -1.52 ± 0.14
26 | AUAAAGCAAUAUUACGACAC | -0.305 ± 0.11 | -0.252 ± 0.13
27 | AUAAAGCAAUAUUACGAGAC | -2.89 ± 0.17 | -1.63 ± 0.19
28 | AUAAAGCAAUAUUACGAGAU | -2.31 ± 0.11 | -1.22 ± 0.12
29 | AUAAAGCAAUAUUACGAGCA | -0.252 ± 0.074 | -0.299 ± 0.082
30 | AUAAAGCAAUAUUACGAUAU | -0.0773 ± 0.088 | 0.168 ± 0.1
31 | AUAAAGCAAUAUUACGAUUG | -2.38 ± 0.14 | -1.14 ± 0.16
32 | AUAAAGCAAUAUUACGCAAA | -1.01 ± 0.1 | -1.03 ± 0.14
33 | AUAAAGCAAUAUUACGCAGU | -1.89 ± 0.11 | -0.968 ± 0.096
34 | AUAAAGCAAUAUUACGCAUC | -3.37 ± 0.26 | -1.74 ± 0.3
35 | AUAAAGCAAUAUUACGCCCA | 0.167 ± 0.18 | -0.307 ± 0.23
36 | AUAAAGCAAUAUUACGGAUA | -1.7 ± 0.11 | -0.75 ± 0.11
37 | AUAAAGCAAUAUUACGGCGU | 0.632 ± 0.068 | 0.894 ± 0.1
38 | AUAAAGCAAUAUUACGGGUC | -3.45 ± 0.19 | -1.25 ± 0.15
39 | AUAAAGCAAUAUUACGGUGU | -1.25 ± 0.068 | -0.672 ± 0.082
40 | AUAAAGCAAUAUUACGUACC | 0.0438 ± 0.19 | -0.16 ± 0.4
41 | AUAAAGCAAUAUUACGUCAU | -0.954 ± 0.056 | -0.228 ± 0.083
42 | AUAAAGCAAUAUUACGUGGU | -2.45 ± 0.094 | -1.64 ± 0.1
43 | AUAAAGCAAUAUUACGUGUU | -2.97 ± 0.071 | -1.11 ± 0.068
44 | AUAAAGCAAUAUUACGUUGU | -2.65 ± 0.11 | -1.9 ± 0.11
45 | AUACAGCAAUAUUACGACUU | -0.367 ± 0.065 | 0.271 ± 0.081
46 | AUACAGCAAUAUUACGAGAC | -4.95 ± 0.41 | -1.82 ± 0.18
47 | AUACAGCAAUAUUACGAUAU | -1.45 ± 0.092 | -0.42 ± 0.1
48 | AUACAGCAAUAUUACGAUCC | -0.368 ± 0.12 | -1.59 ± 0.15

Row | Sequence | self-splicing fitness (ln) (30 °C) | self-splicing fitness (ln) (37 °C)
49 | AUACAGCAAUAUUACGCAAC | -2.13 ± 0.16 | -1.49 ± 0.15
50 | AUACAGCAAUAUUACGCCCA | -0.142 ± 0.1 | -0.545 ± 0.14
51 | AUACAGCAAUAUUACGCGUU | -3.01 ± 0.14 | -0.461 ± 0.099
52 | AUACAGCAAUAUUACGCUAC | -2.36 ± 0.35 | –
53 | AUACAGCAAUAUUACGCUGG | -2.29 ± 0.13 | -2.76 ± 0.25
54 | AUACAGCAAUAUUACGGACC | -0.965 ± 0.21 | -1.07 ± 0.26
55 | AUACAGCAAUAUUACGGAUC | -3.54 ± 0.23 | -2.53 ± 0.23
56 | AUACAGCAAUAUUACGGGGG | -3.43 ± 0.25 | -2.84 ± 0.25
57 | AUACAGCAAUAUUACGGGGU | -3.29 ± 0.13 | -1.69 ± 0.093
58 | AUACAGCAAUAUUACGGUGC | -3.65 ± 0.19 | -1.74 ± 0.16
59 | AUACAGCAAUAUUACGUAAC | -3.13 ± 0.11 | -1.25 ± 0.077
60 | AUACAGCAAUAUUACGUGAU | -2.14 ± 0.084 | -0.569 ± 0.089
61 | AUACAGCAAUAUUACGUGUC | -4.39 ± 0.14 | -2.67 ± 0.13
62 | AUACAGCAAUAUUACGUUGC | -4.31 ± 0.28 | -2.21 ± 0.35
63 | AUACAGCAAUAUUACGUUGG | -3.51 ± 0.14 | -2.87 ± 0.16
64 | AUAGAGCAAUAUUACGAAAA | -1.06 ± 0.3 | -1.85 ± 0.35
65 | AUAGAGCAAUAUUACGAGAU | -0.944 ± 0.27 | -1.72 ± 0.4
66 | AUAGAGCAAUAUUACGAGCG | -2.43 ± 0.21 | -1.07 ± 0.22
67 | AUAGAGCAAUAUUACGCCGG | -2.52 ± 0.31 | -1.94 ± 0.47
68 | AUAGAGCAAUAUUACGCUGC | -2.86 ± 0.29 | -1.05 ± 0.2
69 | AUAGAGCAAUAUUACGCUUA | -0.78 ± 0.084 | 0.522 ± 0.16
70 | AUAGAGCAAUAUUACGCUUU | -1.68 ± 0.13 | -1.58 ± 0.15
71 | AUAGAGCAAUAUUACGGAAU | -1.26 ± 0.15 | -1.24 ± 0.18
72 | AUAGAGCAAUAUUACGGCAU | 0.19 ± 0.084 | 0.738 ± 0.12

Row | Sequence | self-splicing fitness (ln) (30 °C) | self-splicing fitness (ln) (37 °C)
73 | AUAGAGCAAUAUUACGGCCG | -0.599 ± 0.24 | -1.36 ± 0.45
74 | AUAGAGCAAUAUUACGGGCG | -3 ± 0.22 | -2.13 ± 0.31
75 | AUAGAGCAAUAUUACGGUUG | -3.21 ± 0.23 | -1.92 ± 0.22
76 | AUAGAGCAAUAUUACGGUUU | -0.828 ± 0.071 | -0.331 ± 0.098
77 | AUAGAGCAAUAUUACGUAAA | – | -1.57 ± 0.24
78 | AUAGAGCAAUAUUACGUCAU | -0.913 ± 0.087 | 0.145 ± 0.1
79 | AUAGAGCAAUAUUACGUCGU | -0.0699 ± 0.096 | -0.158 ± 0.1
80 | AUAGAGCAAUAUUACGUCUG | -0.796 ± 0.098 | -0.654 ± 0.14
81 | AUAGAGCAAUAUUACGUGUA | -3.02 ± 0.18 | -1.17 ± 0.16
82 | AUAGAGCAAUAUUACGUUGU | -1.96 ± 0.066 | -1.52 ± 0.07
83 | AUAUAGCAAUAUUACGAAAG | -3.28 ± 0.25 | -2.08 ± 0.38
84 | AUAUAGCAAUAUUACGCAAC | -3.95 ± 0.32 | -1.96 ± 0.27
85 | AUAUAGCAAUAUUACGCACA | -0.73 ± 0.19 | -0.28 ± 0.23
86 | AUAUAGCAAUAUUACGCGUU | -1.67 ± 0.2 | -1.61 ± 0.24
87 | AUAUAGCAAUAUUACGCUAC | -2.34 ± 0.33 | –
88 | AUAUAGCAAUAUUACGGAUU | -1.46 ± 0.14 | -1.26 ± 0.22
89 | AUAUAGCAAUAUUACGGCUU | 0.0949 ± 0.099 | 0.269 ± 0.12
90 | AUAUAGCAAUAUUACGGUUA | -1.12 ± 0.13 | -0.372 ± 0.12
91 | AUAUAGCAAUAUUACGUAAU | -1.02 ± 0.073 | -0.751 ± 0.12
92 | AUAUAGCAAUAUUACGUACU | -0.531 ± 0.16 | -0.188 ± 0.19
93 | AUAUAGCAAUAUUACGUAGU | -2.39 ± 0.14 | -0.774 ± 0.14
94 | AUAUAGCAAUAUUACGUAUA | -2.12 ± 0.23 | -0.454 ± 0.17
95 | AUAUAGCAAUAUUACGUAUC | -3.41 ± 0.3 | -1.92 ± 0.35
96 | AUAUAGCAAUAUUACGUCUA | -0.735 ± 0.12 | -0.495 ± 0.12
